From US20250000991A1, “NECTIN-4 ANTIBODIES AND ANTIBODY-DRUG CONJUGATES” (Eli Lilly and Company, priority 2023, published 2025) come the findings set out here.

In experiment [1] the target is human Nectin-4-eGFP on T24 cells (clone 3) (human) (UniProt Q96NY8). The experiment is described as follows: cell-based or functional assay.
Experiment [2] has as its target human nectin-4 on cells (human) (UniProt Q96NY8). The experiment in a line: cell-based or functional assay.

B1: enfortumab ADC (enfortumab conjugated as in Formula XI, DAR of 8) (antibody, INN chains, looked up, V domains shown)
VH: EVQLVESGGGLVQPGGSLRLSCAASGFTFSSYNMNWVRQAPGKGLEWVSYISSSSSTIYYADSVKGRFTISRDNAKNSLSLQMNSLRDEDTAVYYCARAYYYGMDVWGQGTTVTVSS
VL: DIQMTQSPSSVSASVGDRVTITCRASQGISGWLAWYQQKPGKAPKFLIYAASTLQSGVPSRFSGSGSGTDFTLTISSLQPEDFATYYCQQANSFPPTFGGGTKVEIKR
modifications: drug conjugate Formula XI, DAR 8
B1: in experiment [1], the % activity (max GFP signal loss compared to enfortumab mAb (100%)) stood at 120% and the EC50 (nM) of nectin-4-eGFP signal loss was determined as 2.55 nM. In experiment [2], the Cytotoxicity IC50, NCI H1781 cells is 0.0409 nM and the Cytotoxicity IC50, T24 Nectin-4 clone 108 cells was 0.0747 nM.
